The target in one assay is T1, GST-NEMO(1-196), Q9Y6K9.
T1 chain: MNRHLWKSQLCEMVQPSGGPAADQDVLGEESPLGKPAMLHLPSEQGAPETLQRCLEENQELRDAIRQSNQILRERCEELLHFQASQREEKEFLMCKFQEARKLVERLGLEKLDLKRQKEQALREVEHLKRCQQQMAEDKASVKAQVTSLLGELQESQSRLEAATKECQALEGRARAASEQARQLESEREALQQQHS
The assay is described as follows: HTRF competition: GST-NEMO (30 nM) + biotin-IKKβKK/RR(701-745) (50 nM), 5 mM TCEP. (In general: Time-resolved FRET reads energy transfer from a long-lived donor to a nearby acceptor.)

Assay [1] deals with NEMO (endogenous, in NF-κB reporter (Luc)-HEK293 cells), Q9Y6K9. Put plainly: cell-based or functional assay.

Here are results for one molecule from US20190282654A1.

Bridge positions count the residues as written; N and C are the ends. Square brackets hold non-standard residues; d marks the D form. Primed or numbered codes have the meaning given here. Ends that are not written are not given here. 2Nal = N[C@@H](Cc1ccc2ccccc2c1)C(=O)O; BMB″ = not defined here

B1: bicyclic peptide 4 (peptide)
peptide: RRRR[2Nal]FCALDWSWLQC
modifications: linker 7-16 via BMB″ (inferred); not fully specified (bridges); reading uncertain
Regarding B1, the IC50 (in general, the concentration needed to halve the response being measured) with GST-NEMO(1-196), Q9Y6K9 stood at 3.5 µM. In assay [1], this molecule gave a TNFα-induced luciferase activity, NF-κB reporter (Luc)-HEK293 cells, IC50 of 20 µM.
